Source: patent publication US20230096030A1 (UCB, published 2023)

Key:
[1] = biological target: T1, full length cell-expressed CD9 (human, UniProt P21926 2-228); assay: selection on cells expressing CD9; method not described
T1 construct: also called human CD9
T1 sequence: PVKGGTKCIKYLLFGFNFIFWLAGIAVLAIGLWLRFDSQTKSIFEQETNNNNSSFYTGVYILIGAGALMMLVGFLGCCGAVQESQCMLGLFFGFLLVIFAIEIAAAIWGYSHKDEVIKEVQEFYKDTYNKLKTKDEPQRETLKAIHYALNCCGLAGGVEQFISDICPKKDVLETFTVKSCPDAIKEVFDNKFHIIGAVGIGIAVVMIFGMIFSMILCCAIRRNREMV

[2] = biological target: T2, recombinant human CD9 long extracellular loop 2-human Fc fusion protein (10015-CD, R&D Systems) (human, UniProt P21926 112-195); assay: BLI (Octet RED384), CD9 loop 2-Fc on AHC biosensors, Fab-Y 10 µg/mL
T2 construct: Bought reagent; the order here follows the printed name; also called CD9-loop2; long extracellular loop 2 peptide; not shown: human Fc
T2 sequence: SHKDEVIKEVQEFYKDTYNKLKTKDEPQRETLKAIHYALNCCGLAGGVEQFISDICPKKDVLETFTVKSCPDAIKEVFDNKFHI
Text: CD9 contains two extracellular loops: a short extracellular loop (loop 1: 34-55 in SEQ ID NO:2) and a long extracellular loop (loop 2: 112-195 in SEQ ID NO:2). We used biolayer interferometry to assess binding of our panel of CD9 Fab-Y antibodies (selected for binding to full length cell-expressed CD9) to the long extracellular loop 2 peptide using the Octet® RED384 System (FortéBio) with Anti-hlgG Fc Capture (AHC) Biosensors (FortéBio) at room temperature. Firstly, an array of 8 sensors was dipped in kinetics buffer (PBS 0.1%, BSA 0.02%, Tween 20) for 120 seconds to provide a baseline signal. Sensors were then moved to wells containing 200 μl of recombinant human CD9 long extracellular loop 2-human Fc fusion protein (10015-CD, R&D Systems®) at 2 μg/mL in kinetics buffer to immobilize the protein to the biosensor (100 seconds), followed by a second baseline step (180 seconds) in kinetics buffer to equilibrate the biosensors now coated with the CD9 long extracellular loop 2-human Fc fusion protein. No detachment of the peptide was observed during this step. Sensors were then dipped in wells containing one of the anti-CD9 Fab (10 μg/mL) to evaluate association of each antibody to CD9-loop2 (120 seconds), followed by dissociation in kinetics buffer (600 seconds). Anti-CD137 Fab-Y (11175) was used as negative control during the antibody association step. […]

binding result [1]: binds | binding result [2]: binds
B1: anti-CD9 Fab-Y 7272 (Fab, V domains shown)
VH: QSLEESGGRLVTPGTPLTLTCTVSGFSLSSYAMGWVRQAPGKGLEWIGAIGSITATGYARWAKGRFSISKTSTTVDLKMTSPTTEDTATYFCAREIYVGSAYAFDIWGPGTLVTVSS
VL: AYDMTQTPASVEVAVGDTVTIKCQASQSISNYLAWYQQKPGQPPKLLIYLASTLASGVPSRFKGSGSGTEFTLTISDLECADAATYYCQQGYIDNVNKGFGGGTEVVVK
notes: Tested as Fab-Y: Fab with the GCN4 peptide (clone 7P14P) attached by a peptide linker to CH1; also called VR7272
